“And” between values parts separate entries of the source, which are not always exact repeats. Identical values can stand only once. Positions of bridges follow the written chain, without caps; N, C: chain ends. Non-standard residues stand in square brackets, D forms with d. 5‑nitrobenzoyl = N-terminal 5-nitrobenzoyl group, introduced by coupling 2-fluoro-5-nitrobenzoyl chloride; hSer = N[C@@H](CCO)C(=O)O

The target of series [1] is p75 NGF receptor on B104 rat neuroblastoma cells and 4-3.6 cells (rat) (UniProt P07174). The series can be described thus: FACScan, 4-3.6 cells, mAb 1 nM, no competitor.
Sequence of p75 NGF receptor on B104 rat neuroblastoma cells and 4-3.6 cells (rat) (P07174 30-425): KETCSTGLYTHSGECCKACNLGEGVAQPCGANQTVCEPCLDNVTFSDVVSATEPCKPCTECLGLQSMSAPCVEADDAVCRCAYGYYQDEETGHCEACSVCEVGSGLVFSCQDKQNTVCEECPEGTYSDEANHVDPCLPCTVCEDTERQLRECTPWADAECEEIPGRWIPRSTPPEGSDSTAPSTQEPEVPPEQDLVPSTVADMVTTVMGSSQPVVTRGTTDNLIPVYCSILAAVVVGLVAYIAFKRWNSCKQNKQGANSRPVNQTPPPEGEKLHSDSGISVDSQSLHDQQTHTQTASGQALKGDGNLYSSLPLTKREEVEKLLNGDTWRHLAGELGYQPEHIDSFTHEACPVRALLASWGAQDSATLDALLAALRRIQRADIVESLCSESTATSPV
The target in series [2] is human TrkA expressed on transfected cells (4-3.6 cells; NIH3T3-TrkA cells) (human) (UniProt P04629). The series is described as follows: FACScan, 4-3.6 cells, avidin-FITC.
Sequence of human TrkA expressed on transfected cells (4-3.6 cells; NIH3T3-TrkA cells) (human) (P04629 33-796): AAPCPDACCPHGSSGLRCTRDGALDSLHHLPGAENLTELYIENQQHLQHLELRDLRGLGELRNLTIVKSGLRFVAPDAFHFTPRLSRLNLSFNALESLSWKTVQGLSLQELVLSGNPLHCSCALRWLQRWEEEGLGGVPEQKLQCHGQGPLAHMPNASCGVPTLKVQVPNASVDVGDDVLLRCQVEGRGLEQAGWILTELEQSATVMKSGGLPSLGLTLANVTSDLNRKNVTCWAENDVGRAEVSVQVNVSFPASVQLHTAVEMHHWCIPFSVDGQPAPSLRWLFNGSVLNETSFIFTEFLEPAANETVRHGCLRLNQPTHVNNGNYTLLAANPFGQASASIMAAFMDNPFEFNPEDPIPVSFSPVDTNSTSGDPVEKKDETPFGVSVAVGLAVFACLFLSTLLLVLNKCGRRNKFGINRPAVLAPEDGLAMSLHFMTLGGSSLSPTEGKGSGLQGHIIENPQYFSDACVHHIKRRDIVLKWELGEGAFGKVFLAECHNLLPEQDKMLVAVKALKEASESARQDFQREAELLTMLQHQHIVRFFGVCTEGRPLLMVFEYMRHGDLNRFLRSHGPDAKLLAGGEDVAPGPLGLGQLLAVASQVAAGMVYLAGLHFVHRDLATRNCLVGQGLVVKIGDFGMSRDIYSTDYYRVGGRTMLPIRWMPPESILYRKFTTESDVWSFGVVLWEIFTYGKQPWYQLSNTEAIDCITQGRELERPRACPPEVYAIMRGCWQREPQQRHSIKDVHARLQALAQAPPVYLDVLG
Series [3] deals with p75 NGF receptor on B104 rat neuroblastoma cells and 4-3.6 cells (rat) (UniProt P07174). The series is described as follows: FACScan, B104 cells (p75+ TrkA-), avidin-FITC.
The target in series [4] is human TrkA expressed on transfected cells (4-3.6 cells; NIH3T3-TrkA cells) (human) (UniProt P04629). The series can be described thus: FACScan, 4-3.6 cells (p75+ TrkA+), avidin-FITC.
Series [5] is described as follows: Proteolytic stability, then trophic assay on 4-3.6 cells. Conditions: exposure to trypsin or pepsin (D3: 1 hour).
Description: The proteolytic stability of D3 versus trypsin and papain was assessed. D3 was first exposed to enzymatic treatment as described previously (Saragovi et al., 1992), followed by gauging its biological activity on 4-3.6 cells.
Series [6] concerns TrkB-expressing HEK293 cells. The series is described as follows: Cell survival control, TrkB-expressing HEK293 cells. In kind it is cell-based. As for the experimental part:
(§1) Cell lines: 5,000 cells/well in protein-free media (PFHM-II, GIBCO, Toronto) containing 0.2% bovine serum albumin (BSA) (Crystalline fraction V, Sigma, St. Louis, Mo.) were seeded in 96 well plates (Falcon, Mississauga, Ontario). The cultures were untreated, or treated with the indicated test or control ligands. Cell viability was quantitated using the MTT assay after 56-72 hours of culture. […] The OD of untreated cells were subtracted. The higher optical density of untreated primary cultures is likely due to cellular heterogeneity and to endogenous production of limiting amounts of growth factors.

The test system of series [7] is wild type NIH3T3 fibroblasts. The series is described as follows: Cell survival (MTT), NIH wt. Type of series: cell-based. Conditions: 72 hours.
Excerpt: (§2) The 4-3.6 cells are B104 cells stably transfected with human trkA cDNA, and express equal levels of p75 and TrkA (TrkA+ p75+). For screening agents that activate or antagonize TrkC receptors, NIH3T3 fibroblasts were stably transfected with human TrkC cDNA. These cells respond to the ligand NT-3. For screening agents that activate or antagonize TrkA receptors, NIH3T3 fibroblasts were stably transfected with human TrkA cDNA. These cells respond to the ligand NGF.
as §1

Series [8] has as its system wild type HEK293 cells. The series is described as follows: Cell survival control, wild type HEK293 cells. Type of series: cell-based. As for the experimental part:
as §1

The subject of series [9] is B104 cells. The series can be described thus: Cell survival control, B104 cells. In kind it is cell-based, rat.
Excerpt: as §2, §1

The subject of series [10] is embryonic rat DRG primary neuronal cultures. The series is described as follows: Cell survival (MTT), primary DRG cultures.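 As to % Protection: 100% equals survival with optimal NGF at 1 nM.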 In kind it is cell-based. As to conditions: 8 days. As for the experimental part: Fetal rat DRG primary cultures were established from Sprague Dawley day 17 rat embryos. All ganglia were dissected and dissociated first enzymatically with trypsin and then mechanically. Dissociated cells were cultured (10^5 cells/well) in 96 well plates pre-coated with collagen, and grown for a total of 8 days in Neuro Basal Medium containing N2 supplement (GIBCO, Toronto), antibiotics, and L-glutamine. These DRG cultures are ˜85% TrkA-expressing and are heavily dependent on TrkA signals for survival.
Primary DRG cultures: After a total of 8 days of culture with the indicated test or control ligands, cell survival were studied using the 3(4,5-Dimethylthiazolyl-2)-2,5-diphenyl tetrazolium bromide colorimetric (MTT) assay, and by microscopic observation.
as §1

Series [11] has as its system septal neuronal cultures. The series can be described thus: ChAT activity in septal neuronal cultures. Type of series: cell-based, rat. Conditions: day 8. As for the experimental part: Cell cultures were established from the septal area of 17-day-old rat embryos. In brief, tissue was incubated in PBS containing trypsin and DNase. Tissue pieces then were mechanically dissociated. After centrifugation, the pellet was suspended in Leibovitz's L-15 medium. Cells were plated onto 96-multiwell NUNC dishes (10^5 cells/well) coated with poly-D-lysine (5 μg/ml). Pure cultures of septal neurons were treated 1 day after plating. Drugs, prepared in medium, were added directly to the cells without changing the initial medium. The incubation continued for 8 days, at which time ChAT activity was evaluated.
At day 8 of culture, the medium was aspirated, and ice-cold lysis buffer (10 mM sodium phosphate, pH 7.4/0.1% TritonX-100—Trade-mark) was added. ChAT activity assays were performed directly in the wells using Fonnum's method (Fonnum, 1975).

For series [12], the target named is T1, NIH3T3 fibroblasts expressing TrkC (Homo sapiens, UniProt Q16288).
T1 construct: expressed in transfected cells; host or cells: NIH3T3 fibroblasts
T1 sequence (Q16288 32-839): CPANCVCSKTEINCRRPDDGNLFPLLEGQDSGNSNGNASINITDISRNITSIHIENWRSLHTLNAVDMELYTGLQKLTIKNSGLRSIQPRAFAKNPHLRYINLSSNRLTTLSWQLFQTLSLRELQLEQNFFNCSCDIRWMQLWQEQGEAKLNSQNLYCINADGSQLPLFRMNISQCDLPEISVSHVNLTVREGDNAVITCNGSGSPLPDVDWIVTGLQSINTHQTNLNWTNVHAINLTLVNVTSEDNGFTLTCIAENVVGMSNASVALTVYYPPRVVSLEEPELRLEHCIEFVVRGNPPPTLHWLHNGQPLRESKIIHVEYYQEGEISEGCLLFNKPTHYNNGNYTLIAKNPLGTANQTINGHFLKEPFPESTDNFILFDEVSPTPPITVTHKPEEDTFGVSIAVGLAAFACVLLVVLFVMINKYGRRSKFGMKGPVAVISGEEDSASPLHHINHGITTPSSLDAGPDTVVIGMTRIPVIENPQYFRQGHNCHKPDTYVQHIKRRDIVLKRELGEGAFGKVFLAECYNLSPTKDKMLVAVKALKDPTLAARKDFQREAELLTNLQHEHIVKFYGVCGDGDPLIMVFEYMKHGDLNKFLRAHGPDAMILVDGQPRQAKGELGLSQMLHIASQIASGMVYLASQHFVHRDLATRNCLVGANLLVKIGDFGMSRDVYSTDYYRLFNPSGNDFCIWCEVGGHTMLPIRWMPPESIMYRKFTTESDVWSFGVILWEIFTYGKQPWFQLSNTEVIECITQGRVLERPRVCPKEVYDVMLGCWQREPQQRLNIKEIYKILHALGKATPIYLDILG
The series is described as follows: Cell survival (MTT), NIH-TrkC. In kind it is cell-based. As to conditions: 72 hours.
Excerpt: as §2, §1

Series [13] has as its target human TrkA expressed on transfected cells (4-3.6 cells; NIH3T3-TrkA cells) (human) (UniProt P04629). The series is described as follows: FACScan, 4-3.6 cells (p75+ TrkA+), D3-biotin 20 µM with 10-fold molar excess of D3, avidin-FITC.
The target in series [14] is recombinant baculovirus TrkA-extracellular domain protein (TrkA-ECD) (UniProt P04629). The series is described as follows: calculated from competition ELISA against mAb 5C3 on immobilized TrkA-ECD.
Sequence of recombinant baculovirus TrkA-extracellular domain protein (TrkA-ECD) (P04629 33-423 limits assumed): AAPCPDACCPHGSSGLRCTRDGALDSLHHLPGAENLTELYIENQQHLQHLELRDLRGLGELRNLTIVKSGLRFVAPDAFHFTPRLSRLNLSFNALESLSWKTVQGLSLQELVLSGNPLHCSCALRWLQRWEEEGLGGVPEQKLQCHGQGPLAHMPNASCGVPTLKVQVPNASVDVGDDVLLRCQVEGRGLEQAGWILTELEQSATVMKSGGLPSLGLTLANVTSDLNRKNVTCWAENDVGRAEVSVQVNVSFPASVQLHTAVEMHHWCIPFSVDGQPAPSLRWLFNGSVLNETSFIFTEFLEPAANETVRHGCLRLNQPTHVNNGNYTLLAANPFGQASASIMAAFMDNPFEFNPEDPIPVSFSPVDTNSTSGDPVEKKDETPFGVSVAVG
In series [15] the target is p75 NGF receptor on B104 rat neuroblastoma cells and 4-3.6 cells (rat) (UniProt P07174). The series is described as follows: FACScan competition, 4-3.6 cells, mAb MC192 1 nM, competitor D3 40 µM.
For series [16], the target named is recombinant baculovirus TrkA-extracellular domain protein (TrkA-ECD) (UniProt P04629). The series can be described thus: competition ELISA, mAb 5C3 2 nM on immobilized TrkA-ECD, competitor D3 40 µM. (An ELISA detects its analyte on a solid surface through an enzyme-linked reagent.)
Series [17] shares this target. The series can be described thus: competition ELISA, mAb 5C3 2 nM on immobilized TrkA-ECD, competitor D3 1 µM.
The target is the same in series [18]. The series can be described thus: competition ELISA, mAb 5C3 2 nM on immobilized TrkA-ECD, competitor D3 20 µM.
Series [19] has as its target TrkA on primary rat embryonic neurons (DRG and septal cultures) (rat, UniProt P35739 33-799). The series can be described thus: cell-based or functional assay.
Series [20] concerns the target human TrkA expressed on transfected cells (4-3.6 cells; NIH3T3-TrkA cells) (human) (UniProt P04629). The series can be described thus: FACScan competition, 4-3.6 cells, mAb 5C3 1 nM, competitor D3 1 µM.
The target of series [21] is p75 NGF receptor on B104 rat neuroblastoma cells and 4-3.6 cells (rat) (UniProt P07174). The series can be described thus: FACScan, B104 cells (p75+ TrkA-), D3-biotin 20 µM with 10-fold molar excess of D3, avidin-FITC.
Series [22] addresses human TrkA expressed on transfected cells (4-3.6 cells; NIH3T3-TrkA cells) (human) (UniProt P04629). The series is described as follows: cell-based or functional assay.
For series [23] the target is unchanged. The series can be described thus: FACScan competition, 4-3.6 cells, mAb 5C3 1 nM, competitor D3 5 µM.
Series [24] shares this target. The series is described as follows: estimated from FACScan competition against mAb 5C3 on 4-3.6 cells.
For series [25], the target named is recombinant baculovirus TrkA-extracellular domain protein (TrkA-ECD) (UniProt P04629). The series can be described thus: competition ELISA, mAb 5C3 2 nM on immobilized TrkA-ECD, competitor D3 5 µM.
Series [26] addresses human TrkA expressed on transfected cells (4-3.6 cells; NIH3T3-TrkA cells) (human) (UniProt P04629). The series is described as follows: FACScan competition, 4-3.6 cells, mAb 5C3 1 nM, competitor D3 0.20 µM.
Series [27] has the same target. The series is described as follows: FACScan competition, 4-3.6 cells, mAb 5C3 1 nM, competitor D3 40 µM.
Series [28] deals with recombinant baculovirus TrkA-extracellular domain protein (TrkA-ECD) (UniProt P04629). The series can be described thus: competition ELISA, mAb 5C3 2 nM on immobilized TrkA-ECD, competitor D3 0.05 µM.
For series [29] the target is unchanged. The series can be described thus: competition ELISA, mAb 5C3 2 nM on immobilized TrkA-ECD, competitor D3 0.2 µM.
The target of series [30] is human TrkA expressed on transfected cells (4-3.6 cells; NIH3T3-TrkA cells) (human) (UniProt P04629). The series can be described thus: cell-based or functional assay. The source holds these as a separate data set.
The target of series [31] is human TrkC expressed on transfected NIH3T3 fibroblasts (human) (UniProt Q16288). The series can be described thus: cell-based or functional assay.
Sequence of human TrkC expressed on transfected NIH3T3 fibroblasts (human) (Q16288 32-839): as the sequence (Q16288 32-839) above

Sequence of TrkA on primary rat embryonic neurons (DRG and septal cultures) (P35739 33-799): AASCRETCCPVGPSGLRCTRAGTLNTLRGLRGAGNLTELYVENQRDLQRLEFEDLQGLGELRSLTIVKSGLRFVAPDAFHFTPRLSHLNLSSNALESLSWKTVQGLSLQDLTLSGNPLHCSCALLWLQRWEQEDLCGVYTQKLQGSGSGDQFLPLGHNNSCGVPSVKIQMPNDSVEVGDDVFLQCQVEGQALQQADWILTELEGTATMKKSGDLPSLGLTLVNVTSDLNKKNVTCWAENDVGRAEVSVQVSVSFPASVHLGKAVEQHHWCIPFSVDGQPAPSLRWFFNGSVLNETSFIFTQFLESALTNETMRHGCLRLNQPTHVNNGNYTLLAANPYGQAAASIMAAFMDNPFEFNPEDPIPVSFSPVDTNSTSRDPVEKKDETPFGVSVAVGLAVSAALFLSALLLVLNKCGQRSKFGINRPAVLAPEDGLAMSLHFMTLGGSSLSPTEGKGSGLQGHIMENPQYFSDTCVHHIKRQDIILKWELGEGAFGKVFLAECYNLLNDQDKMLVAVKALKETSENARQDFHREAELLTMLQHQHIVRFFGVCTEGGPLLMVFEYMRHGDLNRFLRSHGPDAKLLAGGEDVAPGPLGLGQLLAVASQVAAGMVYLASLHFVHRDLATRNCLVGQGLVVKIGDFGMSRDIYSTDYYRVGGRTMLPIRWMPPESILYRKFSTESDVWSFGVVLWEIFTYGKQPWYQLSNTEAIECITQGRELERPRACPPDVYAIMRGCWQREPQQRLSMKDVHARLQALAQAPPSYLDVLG

In [1], anti-p75 monoclonal antibody MC192 showed a % Maximal binding of 100%.

In the case of “D3-biotin (biotin derivative of D3) (peptide)”, the fold fluorescence over control peptide-biotin in series [2] worked out at 4 fold. Further, the figures for the MCF in series [3] and in [4] were 10 MCF and 53 MCF, respectively.

Consider “NGF: neurotrophin nerve growth factor, natural ligand of TrkA”, for which the “biological activity in trophic assays after enzymatic treatment” value in series [5] is given as “lost all activity within minutes”. Also, the protection from apoptosis entry in series [6], in series [8] and in series [9] was “neither D3 nor NGF protected” each time. For the same molecule, the “NIH wt % Protection” value was 5 ± 7% and 3 ± 5% in series [7] (10 pM NGF); 5 ± 12% and 4 ± 6% in series [7] (1 nM NGF). Besides, the “% Protection” value stood at 9 ± 1% in series [10] (NGF 20 pM); 68 ± 3% in series [10] (NGF 500 pM); 100 ± 4% in [10] (NGF 1 nM, relative to 1 nM NGF). Further, the “Optical Density” value in series [10] (NGF 20 pM) worked out at 316 ± 11; in [10] (NGF 500 pM) it was 535 ± 19; in [10] (NGF 1 nM), 823 ± 28. Also, the figures for the “ChAT Activity” value in series [11] (10 pM NGF) and in series [11] (400 pM NGF) were 0.42 ± 0.07 pmol Ach/min/well and 0.72 ± 0.10 pmol Ach/min/well, respectively. Also, the “NIH-TrkC % Protection” value in series [12] (10 pM NGF) was 2 ± 4%; in series [12] (1 nM NGF), 5 ± 6%.

On to {5‑nitrobenzoyl}-EK[hSer]G-OH (bridge N-3) [D3 (EKHse-G-OH), β-turn peptidomimetic cyclic compound], for which the MCF of D3-biotin in the presence of competitor D3 in [13] worked out at 17 MCF. Besides, the Kd (in general, the concentration at which binding is half-saturated) in series [14] was 2000 nM. Besides, the % Maximal binding of mAb MC192 in [15] came out at 101%. The % Binding of mAb 5C3 in series [16] came to 31%. Moreover, the % Binding of mAb 5C3 in series [17] was found to be 64%. In [18], the % Binding of mAb 5C3 stood at 38%. Also, in series [19], the “ChAT Fold Increase, 0.2 µM D3” value was 1.23 fold; the “ChAT Fold Increase, 0.2 µM D3 + 10 pM NGF” value came out at 2 fold; the “ChAT Fold Increase, 2 µM D3” value is 1.47 fold; the “ChAT Fold Increase, 2 µM D3 + 10 pM NGF” value is 2.53 fold. Further, in [19], the “ChAT Fold Increase, 20 µM D3” value stood at 1.56 fold and the “ChAT Fold Increase, 20 µM D3 + 10 pM NGF” value was 2.63 fold. Moreover, in series [20], the % Maximal binding of mAb 5C3 stood at 80%. Further, the MCF of D3-biotin in the presence of competitor D3 in [21] came out at 11 MCF. Moreover, in series [22], the % Protection (MTT, 4-3.6 cells), 10 µM D3 turned out to be 8%; the % Protection (MTT, 4-3.6 cells), 10 µM D3 + 10 pM NGF worked out at 55%; the % Protection (MTT, NIH-TrkA), 10 µM D3 amounted to 8%; the % Protection (MTT, NIH-TrkA), 10 µM D3 + 10 pM NGF amounted to 51%. In addition, in [22], the Optical Density (MTT survival, 4-3.6 cells), 10 µM D3 came to 95 OD; the Optical Density (MTT survival, 4-3.6 cells), 10 µM D3 + 10 pM NGF was found to be 255 OD; the intensity of the Mr 300 kDa band (putative TrkA·TrkA dimers) after cross-linking, standardized to 1 nM NGF (100%), 10 pM NGF + 10 µM D3 is 77%; the intensity of the Mr 300 kDa band (putative TrkA·TrkA dimers) after cross-linking, standardized to 1 nM NGF (100%), 10 µM D3 alone was 21%. In series [23], this molecule showed a % Maximal binding of mAb 5C3 of 53%. For the same molecule, the Kd in series [24] was 2000 nM. Moreover, the % Binding of mAb 5C3 in series [25] was found to be 43%. Also, the % Maximal binding of mAb 5C3 in [26] is 95%. In series [27], this molecule showed a % Maximal binding of mAb 5C3 of 33%. In addition, the % Binding of mAb 5C3 in series [28] was 100%. Moreover, the % Binding of mAb 5C3 in series [29] stood at 89%.

B1: Neurotrophin-3 (NT-3) (ligand, UniProt P20783 139-257, looked up, species assumed)
Neurotrophin-3: YAEHKSHRGEYSVCDSESLWVTDKSSAIDIRGHQVTVLGEIKTGNSPVKQYFYETRCKEARPVKNGCRGIDDKHWNSQCKTSQTYVRALTSENNKLVGWRWIRIDTSCVCALSRKIGRT
Molecule B1 yielded a % Protection (MTT, NIH-TrkA), 10 pM NT-3 in [30] of 3%. For the same molecule, the % Protection (MTT, NIH-TrkC), 10 pM NT-3 in series [31] turned out to be 29%.

Source of the values: US6881719B2, “β-turn peptidomimetic cyclic compounds” (McGill University, priority 2000, dated 2005).
